Measurements taken from US20240026019A1 (Innovent, published 2024).
Where a chain is given by its changes, count along the chain named. Blank lines part the entries; values can stand above or below the binder they belong to.

What was measured:
[1] = target: T1, human TNFR2 overexpressed on CHO-S cells (CHOS-hTNFR2) (human, UniProt P20333 23-461); experiment: flow cytometry on CHO-S cells overexpressing human TNFR2 (humanized antibodies), MFI-FL2A; unit taken from the axis Conc log(nM)
T1 construct: also called hTNFR2 CHO-S; human TNFR2 molecule overexpressed on CHO-S cells
T1 sequence: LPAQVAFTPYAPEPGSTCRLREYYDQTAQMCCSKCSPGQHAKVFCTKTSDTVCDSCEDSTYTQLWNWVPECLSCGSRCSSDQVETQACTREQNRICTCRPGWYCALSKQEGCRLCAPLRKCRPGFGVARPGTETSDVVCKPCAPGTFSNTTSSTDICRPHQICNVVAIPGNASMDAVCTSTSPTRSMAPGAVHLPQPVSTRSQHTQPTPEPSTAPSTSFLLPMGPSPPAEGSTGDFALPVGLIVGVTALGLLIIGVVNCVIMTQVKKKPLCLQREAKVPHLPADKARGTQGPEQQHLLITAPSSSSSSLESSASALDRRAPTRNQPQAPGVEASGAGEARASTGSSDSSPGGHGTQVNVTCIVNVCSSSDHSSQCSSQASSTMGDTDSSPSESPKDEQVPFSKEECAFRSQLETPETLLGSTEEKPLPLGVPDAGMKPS
Method: In the study, the binding of the antibodies, after being diluted in a gradient, to a stable CHO-S strain line overexpressing human TNFR2 on the surface was assayed by using a flow cytometer.
CHOS-hTNFR2 cells were counted and diluted to 2×10⁶ cells/mL, and added to a U-bottom 96-well plate at 100 μL/well. The mixture was centrifuged at 300 g for 5 min, and the cell medium was removed. Samples (the humanized antibodies hz3C4.7, hz69B1.5, hz69B1.6, hz69B1.11 and hz69B1.20, the chimeric antibody 69B1, and the positive control antibody OPI) (the antibodies were subjected to a three-fold dilution in PBS from the maximum antibody concentration of 300 nM) were added to the U-plate, and the cells were resuspended at 100 μL/well and left to stand on ice for 30 min. The suspension was centrifuged at 400 g for 5 min, and the supernatant was removed. The cells were washed twice with PBS. The mixture was centrifuged at 300 g for 5 min, and PBS was removed. 100 μL of anti-human Fc PE-labeled secondary antibody (SoutherBiotech; 2040-09) (diluted at a 1:100 ratio in PBS) was added to each well and incubated on ice for 30 min in the dark. The mixture was centrifuged at 400 g for 5 min, and the supernatant was removed. The cells were washed 3 times with PBS. The cells were resuspended in 200 μL of 1×PBS and assayed by FACS.

[2] = target: T2, hTNFR2 protein (coated on the microplate in the blocking ELISA) (human, UniProt P20333 23-257); experiment: blocking ELISA: hTNFR2 coated on the plate, binding of biotinylated TNFα blocked by the antibody; unit taken from the axis Conc log(nM) [A]
T2 construct: The construct coated in the ELISA is not described (it may or may not be the immunogen, Sino biological 10417-H03H)
T2 sequence (looked up): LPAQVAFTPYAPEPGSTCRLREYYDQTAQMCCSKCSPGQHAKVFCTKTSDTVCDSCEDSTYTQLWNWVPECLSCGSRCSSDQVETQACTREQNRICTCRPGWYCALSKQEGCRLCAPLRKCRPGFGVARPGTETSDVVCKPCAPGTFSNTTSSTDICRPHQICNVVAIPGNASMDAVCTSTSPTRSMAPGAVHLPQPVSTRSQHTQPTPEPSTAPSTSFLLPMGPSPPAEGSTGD
Method: The hTNFR2 protein was resuspended and dissolved to a concentration of 2 μg/mL with PBS, and a microplate was coated with the protein and incubated overnight. The plate was blocked with 5% BSA for 1 h, and a biotinylated antigen (Recombinant Biotinylated TNFα protein (ACRO)) was diluted to 2 μg/mL and added to the plate at 10 μL/well. The antibodies prepared as described above (3C4, 69B1, and 72G8) were each diluted in a gradient starting from the maximum concentration of 300 nM for a total of 8 or 12 dilution gradients. The diluted antibodies were added at 100 μL/well and incubated in PBS on ice for 30 min. The antigen-antibody mixture was incubated in a microplate for 90 min and washed three times with PBS, and the supernatant was discarded. 100 μL of Avidin-HRP (Invitrogen) diluted at a 1:5000 ratio was added to each well, incubated at room temperature for 30 min, and washed six times with PBS. A TMB chromogenic solution (solarbio) was added to the plate at 100 μL/well for color development for 1 min, and the reaction was stopped by adding a stop buffer (solarbio) at 100 μL/well. The plate was read on a microplate reader at OD₄₅₀ and OD₆₂₀.
In a similar manner to that in Example 7, the ability of the humanized antibodies hz3C4.7, hz69b1.5, hz69b1.6, hz69b1.11, and hz69b1.20, and the control antibody OPI to block the binding of human TNFα to hTNFR2 was assayed by ELISA.

[3] = target: T3, TNFR2 on human K562 chronic myeloid leukemia cells and on primary human Treg cells (human, UniProt P20333 23-461); experiment: flow cytometry on human K562 CML cells, MFI(FL2); unit taken from the axis Conc log(nM)
T3 construct: whole, on cells; also called K562 cells
T3 sequence (looked up): T1 sequence
Method: (§1) Assay steps: The mixture was centrifuged at 400 g for 5 min, and the cell medium was removed. K562 or Treg cells were resuspended in PBS. After counting, the cells were adjusted to a density of 2×10⁶/mL, and the cell suspension was added to a U-bottom 96-well plate at 100 μL/well. The test antibody was added, subjected to a three-fold gradient dilution, and left to stand on ice for 30 min. The mixture was centrifuged at 300 g for 5 min, and the supernatant was removed. The cells were washed once with PBS. The mixture was centrifuged at 300 g for 5 min, and PBS was removed. 100 μL of PE-anti-human Fc antibody (SOUTHERN BIOTECH, 2040-09) diluted at a ratio of 1:200 was added to each well. The mixture was incubated on ice for 30 min in the dark. The mixture was centrifuged at 400 g for 5 min, and the supernatant was removed. The cells were washed twice with PBS. The cells were resuspended in 100 μL of PBS and assayed by using a flow cytometer (BD, ACCURIC6 plus).

[4] = target: T3, TNFR2 on human K562 chronic myeloid …; experiment: flow cytometry on primary human Treg cells, MFI(FL2); unit taken from the axis Conc log(nM)
Method: Tregs were prepared as follows: Human PBMC cells ([…], PB005F) were thawed, CD4⁺ CD25⁺ CD127^low cells were sorted by flow cytometry, and Treg cells were isolated. According to CD4⁺:anti-CD3/CD28 Beads=1:1, Dynabeads Human T-Activator CD3/CD28 (Gibco, 11131D) was added, followed by 10 ng/mL recombinant IL2, and the cells were stimulated for 7 days.
as §1

B1: humanized antibody hz3C4.7 (antibody, human IgG1, kappa, V domains shown)
VH: QVQLVQSGAEVKKPGASVKVSCKASDYSFTNYYIHWVRQAPGQGLEWMGWIYPGNVITKYHEKFKGRVTMTADTSTSTAYMELSSLRSEDTAVYYCARSRATGYFDYWGQGTLVTVSS
VL: DIQMTQSPSSLSASVGDRVTITCRASQDIRNYLNWYQQKPGKAPKLLIYYTSRLHSGVPSRFSGSGSGTDYTLTISSLQPEDFATYYCQQFNTLPWTFGGGTKVEIKR
EC50 [1]: 0.207 nM | IC50 [2]: 30 nM | EC50 [3]: 0.0356 nM | EC50 [4]: 0.0599 nM

B2: humanized antibody hz69B1.5 (antibody, human IgG1, kappa, V domains shown)
VH: QIQLVQSGSELKKPGASVKVSCKASGYTFTDYSMNWVRQAPGQGLEWMGWLNTETGEPIYADDFKGRFVFSLDTSVSTAYLQISSLKAEDTAVYFCAREAIYYGTSYVLDYWGQGTLVTVSS
VL: DIVLTQSPASLAVSPGQRATITCRASESVEYYGTNFMQWYQQKPGQPPKLLIYSASNVESGVPARFSGSGSGTDFTLTINPVEANDTANYYCQQSRKDPSTFGQGTKLEIKR
EC50 [1]: 0.424 nM | EC50 [3]: 0.0613 nM | EC50 [4]: 0.0239 nM

B3: humanized antibody hz69B1.6 (antibody, human IgG1, kappa, V domains shown)
VH: QVQLVQSGAEVKKPGASVKVSCKASGYTFTDYSMNWVRQAPGQRLEWMGWLNTETGEPIYADDFKGRVTITRDTSASTAYMELSSLRSEDTAVYYCAREAIYYGTSYVLDYWGQGTLVTVSS
VL: B2 VL with Y91F
EC50 [1]: 0.357 nM

Further lines, results first:

EC50 [1]: 0.42 nM | EC50 [3]: 0.0549 nM | EC50 [4]: 0.0299 nM
B4: humanized antibody hz69B1.20 (antibody, human IgG1, kappa, V domains shown)
VH: B2 VH
VL: B2 VL with N85Q, Y91F

EC50 [1]: 0.36 nM | EC50 [3]: 0.0446 nM | EC50 [4]: 0.0243 nM
B5: humanized antibody hz69B1.11 (antibody, human IgG1, kappa, V domains shown)
VH: B3 VH
VL: B2 VL with N85Q, Y91F
